Laboratory results reported in patent publication US20200165343A1 (Dana-Farber, published 2020).
Each block holds one molecule with its values, some of them ahead of it.

What was measured:
[1] = molecular target: MICA extracellular domain (α1-α3 domains), allele not stated (human) (UniProt Q29983); test: fluorescence ELISA (DELFIA): immobilized MICA extracellular domain, antibody titrated, biotinylated anti-mouse IgG + Europium-streptavidin
[2] = molecular target: T1, MICA extracellular domain (α1-α3 domains), allele not stated (human, UniProt Q29983 24-307); test: as above
T1 construct: extracellular domain; also called MICA α1-α3 domains; full-length extracellular domain
T1 sequence (looked up): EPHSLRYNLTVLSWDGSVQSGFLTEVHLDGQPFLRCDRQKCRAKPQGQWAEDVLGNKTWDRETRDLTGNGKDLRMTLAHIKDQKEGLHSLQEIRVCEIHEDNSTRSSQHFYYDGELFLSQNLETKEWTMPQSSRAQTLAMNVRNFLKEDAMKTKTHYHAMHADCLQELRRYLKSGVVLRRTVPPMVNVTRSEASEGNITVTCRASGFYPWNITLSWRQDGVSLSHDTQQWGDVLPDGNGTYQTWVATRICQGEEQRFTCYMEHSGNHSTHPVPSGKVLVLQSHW

EC50 [1]: 1 µg/mL
Molecule: mAb 6D4 (anti-MICA/B antibody, clone 6D4, Biolegend; specific for the MICA α1-α2 domains)

EC50 [2]: 1 µg/mL
B1: mAb 7C6 (parental murine IgG2b monoclonal antibody specific for the MICA/B α3 domain) (antibody, V domains shown)
VH: QIQLVQSGPELKKPGETVKVSCKASGYMFTNYAMNWVKQAPEKGLKWMGWINTHTGDPTYADDFKGRIAFSLETSASTAYLQINNLKNEDTATYFCVRTYGNYAMDYWGQGTSVTVSS
VL: DIQMTQTTSSLSASLGDRVTISCSASQDISNYLNWYQQKPDGTVKLLIYDTSILHLGVPSRFSGSGSGTDYSLTISNLEPEDIATYYCQQYSKFPRTFGGGTTLEIK
notes: Mouse hybridoma antibody; also called 7C6 mAb; 7C6-mIgG2b
